# Test results reported in patent CN113372448A.
# B1: 5-CIB-ScFv (soluble anti-CIB single-chain antibody expressed from CIB-ScFv-pCANTAB5E in E. coli HB2151) (scFv, not shown: small tags and cut ends)
# scFv: QVQLQESGADLVRPGTSVKVSCKASGYAFTNYLIEWVKQRPGQGLEWIGVINPGSGGTNYNEKFKGKATLTTDKSSSTAYMQLNSLTSEDSAVYFCKRPPMITTRRTGFDYWGQGTTVTVSSGGGGSGGGGSGGGGSDIELTQSPTTMAASPGEKITITCSATSSLSSNYLHWYQQKPGFSPKLLIYRTSNLASGVPTRFSGSGSGTSYSLTIGTMEAEDVATYYCHQYHRSPFTFGSGTKLEIKR
# Target: CIB-OVA (cimbuterol coupled to ovalbumin, detection/coating antigen) (UniProt P01012)
# Sequence of UniProt P01012 (P01012 2-386 limits assumed, form in doubt): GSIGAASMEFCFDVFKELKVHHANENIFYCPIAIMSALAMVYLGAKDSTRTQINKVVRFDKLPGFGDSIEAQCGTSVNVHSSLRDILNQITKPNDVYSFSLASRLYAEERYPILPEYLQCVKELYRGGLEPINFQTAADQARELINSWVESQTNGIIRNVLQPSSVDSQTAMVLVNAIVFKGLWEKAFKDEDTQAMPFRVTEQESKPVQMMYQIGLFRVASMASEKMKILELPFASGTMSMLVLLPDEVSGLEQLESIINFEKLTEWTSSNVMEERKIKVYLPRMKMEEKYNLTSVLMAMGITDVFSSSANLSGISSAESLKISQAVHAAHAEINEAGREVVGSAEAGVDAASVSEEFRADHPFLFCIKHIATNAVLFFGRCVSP
# Assay: indirect ELISA of soluble scFv (periplasmic extract), steps as in Example 2 (CIB-OVA coated); negative control pCANTAB-5E/HB2151
binder,measurement,value
B1,"效价 (titre, P/N>2.1) (dilution factor (1:x))",160
